{"source": "paper PMC6167206", "about": "(Molecular microbiology, 2018)", "proteins": {"B1": {"name": "AcpA-His (natural protein)", "chain": "MEKDISRKIDLLNILIEEKRWFTLFELEKNLNCSSKTIRKDISIINDLLPKTIFIHSKKGKGVKLSLPQNQSISEAISNLLKKSLTFLAIQQLLEERSNTVTSLADKLYLPISSTNIVLKRVSKYIKKFGLSLEKKPLRIVGDEFQIILMFSERYLESYPDTEWPFTEYKEEMLIDYINYIEEKLEIVFYSNDKRRMAFIMTILFKRIKQGHKVKFSEWIIKETMESIYYKKIFEGKNVIKVNKNRSLNIEEQVLLVIMVKLSRYVSKDENNLKQEELVLYKEGESTTYTYVKNFISILEQELKIDLNNNEEFVYGMIEYCREAFHILKFIPILKAPEKDTCKYIKKHYEETFYLVKRAYNKWGAEMKLTDIPDEEIAKVTMRIVAIGKQHNINRKKVLLITGEGKSWEEYMKSRINKRYGDQLKFVGGHAKILNGNTDNIDNIDIDFIITTVPLNFSWKSIVYVSPILQERDFYEIGIFASK"}}, "target": "the molecule itself", "assay": "cross-linking", "data": [{"protein": "B1", "values": [{"measurement": "stoichiometry N", "value": 2}]}]}
